Test results: publication PMC8226839, “New Perspectives in the Antimicrobial Activity of the Amphibian Temporin B: Peptide Analogs Are Effective Inhibitors of Candida albicans Growth” (Journal of Fungi, 2021)

Tested on: C. albicans
Assay: Broth microdilution, impact of protease inactivation conditions (growth %)
Assay type: cell-based, Candida albicans

B1: Proteinase K: protease, applied alone as control after thermal inactivation (protein, UniProt P06873 106-384, looked up)
Proteinase K: AAQTNAPWGLARISSTSPGTSTYYYDESAGQGSCVYVIDTGIEASHPEFEGRAQMVKTYYYSSRDGNGHGTHCAGTVGSRTYGVAKKTQLFGVKVLDDNGSGQYSTIIAGMDFVASDKNNRNCPKGVVASLSLGGGYSSSVNSAAARLQSSGVMVAVAAGNNNADARNYSPASEPSVCTVGASDRYDRRSSFSNYGSVLDIFGPGTSILSTWIGGSTRSISGTSMATPHVAGLAAYLMTLGKTTAASACRYIADTANKGDLSNIPFGTVNLLAYNNYQA
modifications: heat-inactivated
Growth [%] (0.125 µM protease alone + 100 °C, 15 min): 86 ± 4.5%

B2: Trypsin: protease, applied alone as control after neutralization with 1.25% FCS (protein, UniProt P00760 24-246, looked up)
Serine protease 1: IVGGYTCGANTVPYQVSLNSGYHFCGGSLINSQWVVSAAHCYKSGIQVRLGEDNINVVEGNEQFISASKSIVHPSYNSNTLNNDIMLIKLKSAASLNSRVASISLPTSCASAGTQCLISGWGNTKSSGTSYPDVLKCLKAPILSDSSCKSAYPGQITSNMFCAGYLEGGKDSCQGDSGGPVVCSGKLQGIVSWGSGCAQKNKPGVYTKVCNYVSWIKQTIASN
Growth [%] (0.125 µM protease alone + 1.25 % FCS): 136.7 ± 14%
